Among the data in patent US20230065493A1 are Radioactivity (isoprene polymerization activity, 14C-IPP incorporation, proteoliposome) values, retold here.

This test deals with CPTL derived from para rubber tree (Hevea brasiliensis) (Hevea brasiliensis).
Consider “CPT1 derived from para rubber tree (Hevea brasiliensis) (enzyme)”, for which the Radioactivity (isoprene polymerization activity, 14C-IPP incorporation, proteoliposome) is 290 dpm.

In the case of “cis-prenyltransferase (CPT) 6 derived from para rubber tree (Hevea brasiliensis) (enzyme)”, the Radioactivity (isoprene polymerization activity, 14C-IPP incorporation, proteoliposome) was 7660 dpm. Turning to “cis-prenyltransferase (CPT) 7 derived from para rubber tree (Hevea brasiliensis) (enzyme)”, the Radioactivity (isoprene polymerization activity, 14C-IPP incorporation, proteoliposome) amounted to 5040 dpm.
